Positions count from the first letter of the chain named.
B1: Polypeptide No. 289 (scFv, V domains shown)
VH: QVQLVQSGAEVKKPGASVKVSCKASGYTFTSYGISWVRQAPGQGLEWMGWMNPISGNTDYAPNFQGRVTMTRDTSTSTVYMELSSLRSEDTAVYYCVVERRREVGMDVWGQGTTVTVSS
VL: DIQMTQSPSSLSASVGDRVTITCQASQGITSYLNWYQQKPGKAPKLLIYKASSLESGVPSRFSGSGSGTDFTLTISSLQPEDFATYYCQQGYSTPLTFGGGTKVEIKR
B2: Polypeptide No. 255 (scFv, V domains shown)
VH: QVQLVQSGAEVKKPGSSVKVSCKASGYTLTELSMHWVRQAPGQGLEWMGGIIPISGTVTYAQKFQGRVTITADESTSTAYMELSSLRSEDTAVYYCANKGQQLVRGYFQHWGQGTLVTVSS
VL: DIQMTQSPSSLSASVGDRVTITCQASHDIRNSVNWYQQKPGKAPKLLIYATSSLQSGVPSRFSGSGSGTDFTLTISSLQPEDFATYYCQQSYNTPFTFGQGTKLEIKR
B3: Polypeptide No. 267 (scFv, V domains shown)
VH: QVQLVQSGAEVKKPGSSVKVSCKASGYTLTSFGISWVRQAPGQGLEWVGMIIPLSGTTHYAQKFQGRVTITADESTSTAYMELSSLRSEDTAVYYCANLYGGNAYYYYGMDVWGQGTTVTVSS
VL: B2 VL with Q24R, H27Q, R30S, S32F, N34A, T51A, Y92F, N93D, F96Y
B4: Polypeptide No. 258 (scFv, V domains shown)
VH: QVQLVQSGAEVKKPGASVKVSCKASGGTFGSYAISWVRQAPGQGLEWMGWINPNTGGAHYAQKFQGRVTMTRDTSTSTVYMELSSLRSEDTAVYYCARVGAAAGYQHWGQGTLVTVSS
VL: DIQMTQSPSSLSASVGDRVTITCRASQSIKGALAWYQQKPGKAPKLLIYSASNLQSGVPSRFSGSGSGTDFTLTISSLQPEDFATYYCQQYNSYPLTFGGGTKVEIKR
B5: Polypeptide No. 264 (scFv, V domains shown)
VH: QVQLVQSGAEVKKPGSSVKVSCKASGYTLTELSMHWVRQAPGQGLEWMGGIIPISSATSIPQKFQGRVTITADESTSTAYMELSSLRSEDTAVYYCARGALYSSSPVRVVAGTKGWFDPWGQGTLVTVSS
VL: B4 VL with S28D, K30S, G31N, A32Y, S50A, N53S, N92Y
B6: Polypeptide No. 251 (scFv, V domains shown)
VH: QVQLVQSGAEVKKPGSSVKVSCKASGGTFSSDAINWVRQAPGQGLEWMGGIIPIVGTPTYAQKFQGRVTITADESTSTAYMELSSLRSEDTAVYYCAKGLAFGVFDGLDVWGQGTTVTVSS
VL: EIVMTQSPATLSVSPGERATLSCRASQSVSSNYLAWYQQKPGQAPRLLIYDVSTRATGIPARFSGSGSGTEFTLTISSLQSEDFAVYYCQQYGSSTLTFGGGTKVEIKR
B7: Polypeptide No. 277 (scFv, V domains shown)
VH: QVQLVQSGAEVKKPGSSVKVSCKASGYTFTGYYMHWVRQAPGQGLEWMGWIDPNSGGTNYAQKFQGRVTITADESTSTAYMELSSLRSEDTAVYYCARDVDTAMVTDYWGRGTLVTVSS
VL: EIVMTQSPATLSVSPGERATLSCRASQSVDNLVGWYQQKPGQAPRLLIYDISSRATGIPARFSGSGSGTEFTLTISSLQSEDFAVYYCQQYGRSPITFGQGTRLEIKR
B8: Polypeptide No. 266 (scFv, V domains shown)
VH: QVQLVQSGAEVKKPGSSVKVSCKASGYSLTELSIHWVRQAPGQGLEWMGGINPISGTANYAQKFQGRVTITADESTSTAYMELSSLRSEDTAVYYCARGTVRLNWFDPWGQGTLVTVSS
VL: EIVMTQSPATLSVSPGERATLSCRASQSVGSQLGWYQQKPGQAPRLLIYGASTRATGIPARFSGSGSGTEFTLTISSLQSEDFAVYYCQQSFSTPLTFGGGTKVEIKR

Columns and labels:
[1] = target: huFLT3-M227 stably expressed on Ramos cells (human) (UniProt P36888); assay: FACS on cells
[2] = target: huFLT3-T227 stably expressed on Ramos cells (human) (UniProt P36888); assay: FACS on cells

| Binder | FACS geometric mean fold change over Jurkat parental [1] [fold] | FACS geometric mean fold change over Jurkat parental [2] [fold] |
| --- | --- | --- |
| B1 | < 2 | < 2 |
| B2 | < 2 | < 2 |
| B3 | < 2 | < 2 |
| B4 | < 2 | < 2 |
| B5 | < 2 | < 2 |
| B6 | < 2 | < 2 |
| B7 | < 2 | < 2 |
| B8 | < 2 | < 2 |

From patent US20240101668A1
